We go through 4 molecules from patent publication US20110065198A1 (NEXIGEN, published 2011).

Assay [1] has as its target T1, glutathione-S-transferase (GST) alone, not fused to Vif (UniProt P08515 1-218 = GST). The assay can be described thus: GST pull-down, 35S in vitro translated protein, SDS-PAGE autoradiography, FIG. 3b lane 13.
Assay [2] concerns the target T1, glutathione-S-transferase (GST) alone, …. Briefly: GST pull-down, 35S in vitro translated protein, SDS-PAGE autoradiography, FIG. 3c lane 15.
From the text: (§1) Lanes 7 to 12 represent the respective pull-down results of the afore-mentioned radioactively labelled in vitro translated proteins by GST-Vif glutathione sepharose beads. […] Lanes 13 to 18 represent the control for the specificity of the GST pulldown experiment, i.e. for the binding specificity of the in vitro translated proteins to Vif. Therefore, lanes 13 to 18 in particular represent the results of GST pull-down, wherein GST was used alone, i.e. without being fused to Vif.
(§2) The binding of interaction candidates to Vif was performed with shaking for one hour at room temperature in binding buffer containing 20 mM NaCl, 20 mMTris pH 8.0, 0.5% NP40 and bovine serum albumine 100 μg/ml. After incubation beads were pelleted by spinning at 500 g for 2 min. and 4 washing steps with 1 ml washing buffer (binding buffer without serum albumin) were followed.
Assay [3] shares this target. The assay can be described thus: GST pull-down, 35S in vitro translated protein, SDS-PAGE autoradiography, FIG. 3b lane 12.
Assay [4] has the same target. Briefly: GST pull-down, 35S in vitro translated protein, SDS-PAGE autoradiography, FIG. 3c lane 14.
From the text: as §1, §2

T1 sequence (P08515 whole entry, the tested form may be a part): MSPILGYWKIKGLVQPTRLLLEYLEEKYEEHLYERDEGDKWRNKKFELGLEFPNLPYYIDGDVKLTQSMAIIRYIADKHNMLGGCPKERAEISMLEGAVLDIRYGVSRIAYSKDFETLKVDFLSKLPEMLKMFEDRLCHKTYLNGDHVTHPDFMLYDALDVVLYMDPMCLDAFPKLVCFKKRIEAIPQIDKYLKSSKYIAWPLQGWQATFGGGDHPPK

Regarding VLIVCVPNPPIDEKNATMPVTMLIRVKTSEDADELHKILLEKKDA (other) [in vitro translated NUP50], the binding result in assay [1] is reported as “no binding”.

B1: in vitro translated PTGES3 (other)
chain: RRDYVFIEFCVEDSKDVNVNFEKSKLTFSCLGGSDNFKHLNEIDLFHCIDPNDSKHKRTDRSILCCLRKGESGQSWPRLTKERAKLNWLSVDFNNWKDWEDDSDEDMSNFDRFSEMMNNMGGDEDVDLPEVDGADDDSQDSDDEKMPDLE
In the case of B1, the binding result in assay [2] was “no binding”.

B2: in vitro translated HERC4 (other, human, UniProt Q5GLZ8 915-1057, looked up)
chain: AFHAGFHKVCGGKVLLLFQPNELQAMVIGNTNYDWKELEKNTEYKGEYWAEHPTIKIFWEVFHELPLEKKKQFLLFLTGSDRIPILGMKSLKLVIQSTGGGEEYLPVSHTCFNLLDLPKYTEKETLRSKLIQAIDHNEGFSLI
For B2, the binding result in assay [3] is recorded as “no binding”.

B3: in vitro translated TPT1 (other, human, UniProt P13693 1-172, looked up)
chain: MIIYRDLISHDEMFSDIYKIREIADGLCLEVEGKMVSRTEGNIDDSLIGGNASAEGPEGEGTESTVITGVDIVMNHHLQETSFTKEAYKKYIKDYMKSIKGKLEEQRPERVKPFMTGAAEQIKHILANFKNYQFFIGENMNPDGMVALLDYREDGVTPYMIFFKDGLEMEKC
notes: also called TCTP
B3: in assay [4], the binding result was “no binding”.
